Reference: US11186651B2, “Monoclonal antibody for the detection of the antiretroviral drug emtricitabine (FTC, 2′,3′-dideoxy-5-fluoro-3′-thiacytidine)” (THE UNITED STATES OF AMERICA, AS REPRESENTED BY THE …, priority 2018, dated 2021)

Key:
[1] = cited from earlier work
[2] = Cross-reactivity test of monoclonal antibody 5D2: FTC; format: binding
Protocol: (§1) The monoclonal antibody 5D2 was tested for cross-reactivity. 5D2 was determined to be specific for FTC, and to not bind to the following compounds: […]

[3] = system: carrier proteins (LPH, BSA); assay: FTC screening assay: EIA on plates coated with carrier proteins; format: binding; details: plates coated at 5 ug/ml
Protocol: (§2) An assay was developed to screen the Mabs for reactivity to the FTC conjugates. Microtiter plates were coated with the following reagents: FTC-peptide-dextran, FTC-peptide, FTC-peptide-LPH, FTC-peptide-BSA, FTC heptanoic acid, peptide only, peptide-LPH, peptide-BSA, BSA, LPH, and normal mouse serum (NMS). All compounds were diluted into sodium bicarbonate buffer, pH 9.6, to a concentration of 5 ug/ml; NMS was diluted 1:15. One hundred microliters of each solution was added to a column of the microtiter plate such that each row of the plate allowed the testing of a single clonal supernatant against all of the compounds in a single run. Plates were incubated at 4° C. overnight and then washed 3× with phosphate-buffered saline (PBS) containing 0.05% Tween 20 (PBS-T). Plates were blocked with PBS containing 0.5% nonfat dry milk for 1 hour at 37° C., washed 3×, and dried at 37° C. for 30 minutes. […]
(§3) Clonal supernatants (100 ul) were added to the appropriate wells and incubated at 37° C. for 1 hr. […] Absorbance was measured at 450 nm with a 630 nm reference.
(§4) Persistently reactive clones were further tested using FTC-peptide coated plates. […] Antibodies that yielded a reduction in absorbance versus the sample containing no FTC were selected for optimization in a FTC detection assay.

[4] = Cross-reactivity test of monoclonal antibody 5D2: related compounds; format: binding; details: Lamivudine (3TC), FTC-Triphosphate, FTC-Diphosphate, Cytidine, Deoxycytidine, Deoxyuridine, Guanosine, Deoxyguanosine, Deoxyadenosine, Adenosine, Thymidine, Uridine, 5-Methyluridine
Protocol: as §1

[5] = FTC screening assay: EIA on FTC-peptide coated plates with competition by free FTC; format: binding; details: supernatant incubated with free FTC
Protocol: as §2, §3, §4

[6] = Competitive indirect EIA, reactivity of 5D2 to naturally occurring structural analogs; format: binding; details: cytidine, cysotine, deoxycytidine, adenine, adenosine, deoxyadenosine, guanine, guanosine, deoxyguanosine, thymine, 5-methyluridine, thymidine, uracil, uridine, deoxyuridine; 12 to 1,000 ug/ml
From the text: Because FTC is an analog of cytidine, a competitive indirect EIA was used to evaluate the reactivity of 5D2 to naturally occurring structural analogs consisting of nitrogenous nucleic acid bases, ribonucleosides, and deoxyribonucleosides, including cytidine, cysotine, deoxycytidine, adenine, adenosine, deoxyadenosine, guanine, guanosine, deoxyguanosine, thymine, 5-methyluridine, thymidine, uracil, uridine, and deoxyuridine. For the competitive assay, the concentrations of these analogs ranged from 12 to 1,000 ug/ml which is similar to the range of FTC found in urine. Reactivity was not detected to all of these naturally occurring analogs using this EIA.

For `Nc1nc(=O)n([C@@H]2CS[C@H](CO)O2)cc1F` [FTC], the “concentration found in serum or plasma” value ([1]; serum or plasma) is given as 1 to 300 ng/mL and the “concentration excreted unchanged in urine” value ([1]; urine) is given as 1000 to 500000 ng/mL.

B1: 5D2: mouse IgG2b kappa monoclonal antibody that specifically binds FTC; heavy chain SEQ ID NO: 1, light chain SEQ ID NO: 2 (antibody, listed as Mus musculus)
heavy: QVQLQQPGAELVKPGASVKVSCKASGYTFTSYWMHWVKQRPGQGLEWIGRIHLSDSDTNYNQNFKDKATLTVDKSSRTAHMHLSSLTSADSAVYYCAMGGTFQSNYDTYWGQGTLVTVSAAKTTPPSVYPLAPGCGDTTGSSVTLGCLVKGYFPESVTVTWNSGSLSSSVHTFPALLQSGLYTMSSSVTVPSSTWPSQTVTCSVAHPASSTTVDKKLEPSGPISTINPCPPCKECHKCPAPNLEGGPSVFIFPPNIKDVLMISLTPKVTCVVVDVSEDDPDVRISWFVNNVEVHTAQTQTHREDYNSTIRVVSALPIQHQDWMSGKEFKCKVNNKDLPSPIERTISKIKGLVRAPQVYILPPPAEQLSRKDVSLTCLVVGFNPGDISVEWTSNGHTEENYKDTAPVLDSDGSYFIYSKLDIKTSKWEKTDSFSCNVRHEGLKNYYLKKTISRSPGK
light: DIQMTQSPASLSASVGETVTITCRASGNIHNYLAWYQQKQGKSPQLLVYNAKTLTDGVPSRFSGSGSGTQYSLKINSLQPEDFGNYYCQHFLYTPYTFGGGTKLEMRRADAAPTVSIFPPSSEQLTSGGASVVCFLNNFYPKDINVKWKIDGSERQNGVLNSWTDQDSKDSTYSMSSTLTLTKDEYERHNSYTCEATHKTSTSPIVKSFNRNEC
In the case of B1, the “specificity for FTC” value [2] is reported as “specific”, the “reactivity with the carrier proteins” value [3] is reported as “did not react” and the “binding to related compounds (cross-reactivity)” value [4] is reported as “not bind”. The “reactivity with FTC (reduction in absorbance versus sample containing no FTC)” value [5] was “competitively reactive” and the “reactivity to naturally occurring analogs” value [6] was “not detected”.
